Data from patent US20230272054A1, “COMBINATION THERAPIES FOR THE TREATMENT AND PREVENTION OF BIOFILMS” (priority 2020, published 2023).
Entries after “also recorded” stand apart in the source; their conditions may differ. Where two headings read alike, the source gives them in different places.

How the values were obtained:
HMGB1 full-length = details: CITED Xin et al., 2000; Table 1 lists under mHMGB1, p605 says full-length HMGB1; cited from earlier work
[1] = target: T1, HUNTHI, native histone-like protein HU (DNABII protein) of nontypeable Haemophilus influenzae (nontypeable Haemophilus influenzae …, UniProt P43722 1-90)
T1 sequence: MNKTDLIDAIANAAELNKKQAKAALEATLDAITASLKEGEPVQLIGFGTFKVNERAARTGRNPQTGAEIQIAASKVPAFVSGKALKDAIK

[2] = target: T2, IHFNTHI, native integration host factor (DNABII protein) of nontypeable Haemophilus influenzae (nontypeable Haemophilus influenzae …, UniProt P43723 1-96; P43724 1-94)
T2 sequence 1: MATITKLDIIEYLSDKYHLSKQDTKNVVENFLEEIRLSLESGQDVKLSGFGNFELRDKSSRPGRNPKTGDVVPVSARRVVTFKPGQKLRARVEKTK
T2 sequence 2: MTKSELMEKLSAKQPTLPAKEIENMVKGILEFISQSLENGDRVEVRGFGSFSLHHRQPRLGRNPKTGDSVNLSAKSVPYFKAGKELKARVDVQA

[3] = target: T1, HUNTHI, native histone-like protein HU …; experiment: SPR (Biacore); mHMGB1 immobilised, HUNTHI injected; the text value differs from Table 1 (103)
[4] = test system: eDNA lattice within K. pneumoniae biofilms; experiment: Visualization of eDNA lattice structure within K. pneumoniae biofilms (immunofluorescence, CLSM); assay type: cell-based, Klebsiella pneumoniae; details: 24 h K. pneumoniae biofilms, 200 nM protein, 16 h
Excerpt: Per the model as disclosed herein, HMGB1 would compete with DNABII proteins, wherein instead of stabilization, HMGB1 would de-stabilize these HJ-like structures and consequently disrupt the biofilm.

E. faecium biofilms = experiment: Disruption of 24 h E. faecium biofilms in vitro (CLSM, COMSTAT average thickness); details: 24 h biofilms, 1 h incubation; non-bactericidal dose
[5] = test system: pro-inflammatory and anti-inflammatory cytokines; experiment: Quantitation of cytokines in middle ear fluids (cytometric bead array); assay type: in vivo, chinchilla (Chinchilla lanigera); details: six days after NTHI challenge, one day after completion of treatment
Protocol: Quantitation of cytokines in middle ear fluids: To quantitate cytokines in middle ear fluids (MEF), a BD™ Cytometric Bead Array was performed with fluids collected at the time of animal sacrifice. With BD™ human-specific Flex Sets, each MEF was individually examined for relative quantity of IL-1β, IL-4, IL-6, IL-8, IL-10, IL12-p70, IL-13, IL-17A, TNF or IFNγ according to manufacturer's instructions. MEFs from each animal were assayed individually. Data were captured on a BD ACCURI™ C6 cytometer (BD Biosciences) and analyzed with FlowJo software (FlowJo, LLC). The concentration of cytokines in each MEF was determined using a standard curve and calculated using GraphPad Prism software.

neutrophils in BAL = experiment: Inflammatory cell recruitment into lungs of B. cenocepacia-challenged mice (H&E, flow cytometry of BAL); assay type: in vivo, C57BL/6 mice; details: B. cenocepacia-infected and simultaneously treated, 0.2 nmol, 18 hpi
[6] = as above; assay type: in vivo, C57BL/6 mice; details: B. cenocepacia-challenged mice, 0.2 nmol, 72 hpi
Human neutrophils = experiment: NET formation by neutrophils incubated with HMGB1 isoforms (CLSM); assay type: cell-based; details: 200 nM protein, 3.5 h
Protocol: Neutrophils were fixed, then labeled as described above to visualize the NETs.
Visualization of NETs structure upon incubation of neutrophils with various isoforms of HMGB1: Human neutrophils were isolated from blood using the EASYSEP™ isolation kit (Stemcell Technologies Inc.). […] NETs were fixed in formalin, blocked with 10% normal goat serum (Life Technologies), and labeled with α-dsDNA monoclonal antibody (1 μg), and α-neutrophil elastase polyclonal antibody (1 μg) or naive rabbit and mouse isotype controls (1 μg) in 200 μl PBS for 16 h hours at 4° C. NETs were washed with PBS and incubated for 1 h with 1:200 dilution goat α-rabbit IgG conjugated to ALEXAFLUOR® 594, goat α-mouse IgG conjugated to ALEXAFLUOR® 488, and 1:500 dilution wheat germ agglutinin conjugated to ALEXAFLUOR® 350 (PMN membrane stain). NETs were imaged with a Zeiss LSM 800 confocal microscope (Carl Zeiss Inc.) and rendered with Zeiss Zen software.

UPEC biofilms = experiment: Disruption of 24 h UPEC biofilms in vitro (CLSM, COMSTAT average thickness); details: mHMGB1 200 nM, 16 h
HJ DNA = experiment: Electrophoretic mobility shift assay (EMSA), binding to HJ DNA; details: 20 nM 6-carboxyfluorescein HJ DNA, 50-500 nM protein, non-denaturing PAGE
Protocol: Arrows indicate the HJ DNA-protein complex.
FIG. 11A provides that NEM-modified rHMGB1 was confirmed by triton acetic acid urea gel (TAU gel). […] Arrows indicate the HJ DNA-protein complex.
Electrophoretic mobility shift assay (EMSA): EMSA was performed as previously described (Devaraj et al., 2019).

NTHI biofilms = experiment: Disruption of NTHI biofilms in the middle ears of chinchillas with experimental otitis media; assay type: in vivo, chinchilla (Chinchilla lanigera); details: 200 nM mHMGB1 and/or 342 nM Fabs
Protocol: As a negative control, an equivalent volume of sterile saline was delivered. One day after receipt of the second therapeutic dose, all animals were sacrificed and NTHI within the middle ear biofilms was enumerated. The relative amount of mucosal biofilm and mucosal inflammation were also qualitatively assessed.
First, effectiveness of single treatment was evaluated. To this end, a subset of animals in each cohort was sacrificed one day after receipt of a single therapeutic dose (FIG. 16H) whereas the remaining animals in each cohort were sacrificed 24 h after receipt of a second treatment.
Chinchilla model of experimental otitis media (OM): Adult chinchillas (Chinchilla lanigera) were obtained from Rauscher's Chinchilla Ranch, LLC. These outbred, non-specific pathogen-free animals were randomly divided into cohorts based on body weight and both male and female animals were enrolled. […] A concentration of 342 nM was based on prior studies wherein 5 μg intact IgG per 0.1 ml volume was injected into the middle ears of chinchillas (Goodman et al., 2011; Novotny et al., 2016; and Novotny et al., 2019).
Disruption of NTHI biofilms resident within the middle ears of chinchillas with experimental OM: Both middle ears of each animal were challenged with 1000 CFU NTHI strain 86-028NP by direct injection to induce experimental OM. Four days later, NTHI mucosal biofilms fill >50% of the middle ear (Novotny et al., 2011). […] To determine the outcome of treatment, animals were sacrificed one day after completion of antibody therapy, images of mucosal biofilms captured with a Zeiss SV6 dissecting microscope, then mucosal biofilms and middle ear mucosa collected, homogenized and plated on to chocolate agar to semi-quantitate the non-planktonic bacterial load within the middle ear (Goodman et al., 2011). […] As an additional assessment, the amount of biofilm in each middle ear was qualitatively determined. […] For both quantitation of bacterial load and qualitative assessment of mucosal biofilm, each middle ear was considered independent.

B. cenocepacia = experiment: Murine model of lung infection by B. cenocepacia, bacterial burden; details: 0.2 nmol i.t. at 24 hpi; 72 hpi; α-EF-Tu labeling
Protocol: Intratracheal challenge of the murine lung with B. cenocepacia and treatment with HMGB1 isoforms: B. cenocepacia strain K56-2, was cultured in LB broth (Difco, Md.) at 37° C. overnight at 200 rpm. Bacterial concentration was adjusted before each experiment based on OD at 600 nm. C57BL/6 mice were infected intratracheally (i.t.) with 10^7 colony forming units (CFU) of B. cenocepacia. […] Animals were euthanized 24 or 48 hpi, and bronchoalveolar lavage (BAL) was collected with 1 ml of PBS plus 1 mM EDTA. […] The slides were permeabilized with 0.5% Triton X-100 for 10 minutes, blocked with 10% normal goat serum (Abcam) for 30 minutes and stained with a monoclonal antibody against E. coli Elongation Factor-Tu (α-EF-Tu; cross reacts with B. cenocepacia) (LSBio) overnight to label B. cenocepacia. The samples were then stained with goat α-mouse IgG Alexa Fluor 488 (Abcam) for 1 h at RT, mounted with fluoroshield media with DAPI (Abcam), visualized via the Nikon Eclipse Ti at 40× magnification (Nikon Instrument Inc. Americas) and analyzed by ImageJ software (NIH). To enumerate bacterial burden, the animals were euthanized 18 or 72 hpi, bronchoalveolar lavage was collected with 1 ml of PBS plus 1 mM EDTA, an aliquot of BAL was serially diluted and plated on LB agar. […] Neither animals nor samples were excluded from evaluation in any study.

[7] = test system: biofilms formed by UPEC, B. cenocepacia, NTHI, Enterobacter spp, S. aureus, K. pneumoniae, A. baumanii, P. aeruginosa, E. faecium; experiment: Disruption of 24 h bacterial biofilms in vitro by HMGB1 isoforms (LIVE/DEAD stain, CLSM, COMSTAT average thickness); details: 24 h biofilms of nine pathogens; 200 nM protein, 16 h (S. aureus 800 nM rHMGB1; E. faecium 800 nM, 1 h)

In the case of HJ DNA (cited), the Kd (HMGB1 full-length) is listed as 10 nM.

B1: mHMGB1 (C45S), recombinant human HMGB1 with an engineered single amino acid mutation C45S (other)
chain: MGKGDPKKPRGKMSSYAFFVQTCREEHKKKHPDASVNFSEFSKKSSERWKTMSAKEKGKFEDMAKADKARYEREMKTYIPPKGETKKKFKDPNAPKRPPSAFFLFCSEYRPKIKGEHPGLSIGDVAKKLGEMWNNTAADDKQPYEKKAAKLKEKYEKDIAAYRAKGKPDAAKKGVVKAEKSKKKKEEEEGEEDEEDEEEEEDEEDEDEEEDDDDE
notes: also called modified HMGB1
With B1 the Kd [1] was 103 nM, the Kd [2] was 579 nM and the Kd [3] was 104 nM.

B2: mHMGB1: recombinant human HMGB1 with engineered single amino acid mutation C45S, SEQ ID NO: 52 (protein)
chain: MGKGDPKKPRGKMSSYAFFVQTCREEHKKKHPDASVNFSEFSKKSSERWKTMSAKEKGKFEDMAKADKARYEREMKTYIPPKGETKKKFKDPNAPKRPPSAFFLFCSEYRPKIKGEHPGLSIGDVAKKLGEMWNNTAADDKQPYEKKAAKLKEKYEKDIAAYRAKGKPDAAKKGVVKAEKSKKKKEEEEGEEDEEDEEEEEDEEDEDEEEDDDDE
modifications: mHMGB1 (C45S)
In the case of B2, the “biofilm bacteria (FilmTracer FM 4-64)” value [4] is reported as “substantial reduction in biofilm bacteria”, the “web-like eDNA lattice structure within biofilm” value [4] is reported as “disruption of the web-like structure; also recorded: notably disrupted” and the “dose required to achieve a similar reduction in biofilm average thickness, E. faecium” value (E. faecium biofilms) is reported as “required a higher dose”. The “IL-10 in middle ear fluids” value [5] was “significantly elevated concentration; also recorded: statistically significant increase”, the “neutrophils in BAL (flow cytometry)” value (neutrophils in BAL) was “eliminated the pro-inflammatory activity; also recorded: significant reduction of neutrophils in BAL compared to those treated with rHMGB1” and the “infiltration of inflammatory cells into lungs (H&E)” value [6] was “no signs of inflammation”. The “induction of NET formation by neutrophils” value (Human neutrophils) was “intertwined NETs specifically formed; also recorded: more strongly induced NET formation”, the “UPEC biofilm disruption in the presence of CbpA (negative control)” value (UPEC biofilms) was “could still disrupt UPEC biofilms” and the “UPEC biofilm disruption in the presence of exogenously added RuvA” value (UPEC biofilms; competitor dose-dependent) was “lost in the presence of competitors; also recorded: unable to disrupt biofilms formed by UPEC”. The “binding to HJ DNA (EMSA)” value (HJ DNA) was “maintained its ability to bind HJ DNA; also recorded: retained its ability to bind to HJ DNA”, the “middle ears that cleared NTHI / culture-negative” value (NTHI biofilms; 24 h after one dose, 6 middle ears) was 50% and the “NTHI in middle ears after two doses” value (NTHI biofilms; 24 h after second dose) was “further reduced”. For the same molecule, the “relative amount of remaining NTHI mucosal biofilm” value (NTHI biofilms; one or two doses) was “highly effective”, the “B. cenocepacia stained within the lung tissue” value (B. cenocepacia) was “significantly reduced bacterial load” and the “biofilm average thickness compared to control” value [7] was “significantly disrupted bacterial biofilms; also recorded: fully retained the anti-biofilm activity”.
